According to publication PMC7818446, “Enzymology of the pathway for ATP production by arginine breakdown” (The Febs Journal, 2020):

Experiments:
[1] = biological target: T1, ArcC1 (carbamate kinase, CK) (Lactococcus lactis, UniProt Q9CE16); assay: ATP formation by ATPlite luminescence; type: biochemical; conditions: read-out: % inhibition at 10 mM
T1 construct: expressed in L. lactis NZ9000; dimer (73 kDa)
T1 sequence (Q9CE16 1-314): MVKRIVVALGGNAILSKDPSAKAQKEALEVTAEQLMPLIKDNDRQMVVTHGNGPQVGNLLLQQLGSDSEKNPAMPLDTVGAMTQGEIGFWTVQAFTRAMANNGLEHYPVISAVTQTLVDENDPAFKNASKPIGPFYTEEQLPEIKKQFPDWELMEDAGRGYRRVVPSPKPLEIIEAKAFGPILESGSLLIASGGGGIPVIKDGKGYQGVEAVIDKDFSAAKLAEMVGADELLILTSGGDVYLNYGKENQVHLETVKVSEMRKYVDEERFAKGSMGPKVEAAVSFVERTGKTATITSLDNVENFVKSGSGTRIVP

[2] = biological target: T1, ArcC1 (carbamate kinase, CK); assay: ATP formation by ATPlite luminescence; type: biochemical; conditions: 5 mM carbamoyl-Pi, 5 mM Mg-ADP; 50 mM KPi pH 7.0; 30 °C
[3] = biological target: T2, ArcA (arginine deiminase, ADI) (Lactococcus lactis, UniProt P58013); assay: citrulline formation, COLDER assay (A540); type: biochemical; conditions: read-out: % inhibition at 10 mM
T2 construct: expressed in L. lactis NZ9000; tetramer (194 kDa)
T2 sequence (P58013 1-410): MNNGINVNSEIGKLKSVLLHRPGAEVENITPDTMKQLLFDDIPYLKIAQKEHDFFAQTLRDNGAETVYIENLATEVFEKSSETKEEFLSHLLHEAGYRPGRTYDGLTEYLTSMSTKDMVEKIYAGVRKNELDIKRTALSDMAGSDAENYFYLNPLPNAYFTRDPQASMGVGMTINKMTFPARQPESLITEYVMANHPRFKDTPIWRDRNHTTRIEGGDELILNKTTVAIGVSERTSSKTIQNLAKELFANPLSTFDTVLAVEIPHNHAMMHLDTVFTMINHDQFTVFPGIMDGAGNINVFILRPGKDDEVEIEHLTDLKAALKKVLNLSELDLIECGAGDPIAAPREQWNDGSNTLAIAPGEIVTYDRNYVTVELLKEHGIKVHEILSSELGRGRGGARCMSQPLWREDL

[4] = biological target: T3, ArcB (ornithine transcarbamoylase, OTC) (Lactococcus lactis, UniProt P0C2U0); assay: citrulline formation, COLDER assay (A540); type: biochemical; conditions: citrulline-forming direction; 5 mM carbamoyl-Pi; 50 mM KPi pH 7.0; 30 °C
T3 construct: expressed in L. lactis NZ9000; hexamer (245 kDa)
T3 sequence (P0C2U0 1-354): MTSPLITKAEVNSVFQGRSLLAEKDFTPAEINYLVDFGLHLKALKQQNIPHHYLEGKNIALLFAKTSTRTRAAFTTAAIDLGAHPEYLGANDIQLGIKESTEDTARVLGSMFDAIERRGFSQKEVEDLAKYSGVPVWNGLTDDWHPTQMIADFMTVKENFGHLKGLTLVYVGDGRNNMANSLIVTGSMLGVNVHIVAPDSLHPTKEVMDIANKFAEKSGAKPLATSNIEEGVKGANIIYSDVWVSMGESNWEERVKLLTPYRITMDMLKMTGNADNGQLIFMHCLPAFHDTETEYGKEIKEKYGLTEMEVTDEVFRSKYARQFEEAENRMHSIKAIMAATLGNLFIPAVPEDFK

[5] = biological target: T2, ArcA (arginine deiminase, ADI); assay: citrulline formation, COLDER assay (A540); Michaelis-Menten with uncompetitive substrate inhibition; type: biochemical; conditions: 3.2 nM ArcA, 50 mM KPi pH 7.0, 30 °C, n = 1
[6] = biological target: T3, ArcB (ornithine transcarbamoylase, OTC); assay: citrulline formation, COLDER assay (A540); type: biochemical; conditions: read-out: % inhibition at 10 mM
[7] = substrate: Nc1ncnc2c1ncn2[C@@H]1O[C@H](COP(=O)(O)OP(=O)(O)O)[C@@H](O)[C@H]1O; assay: ATP/ADP ratio by PercevalHR fluorescence, pH-corrected with pyranine; type: biochemical, Lactococcus lactis; conditions: 5 mM carbamoyl-Pi, 50 mM KPi pH 7.0, 30 °C
[8] = substrate: NC(=O)OP(=O)(O)O; assay: as above; type: biochemical, Lactococcus lactis; conditions: 5 mM Mg-ADP, 50 mM KPi pH 7.0, 30 °C
[9] = substrate: NC(=O)OP(=O)(O)O; assay: citrulline formation, COLDER assay (A540); type: biochemical, Lactococcus lactis; conditions: citrulline-forming direction, 5 mM ornithine, 50 mM KPi pH 7.0, 30 °C
[10] = substrate: N=C(N)NCCC[C@H](N)C(=O)O; assay: citrulline formation, COLDER assay (A540); type: biochemical, Lactococcus lactis; conditions: 50 mM KPi pH 7.0, 30 °C, 42 nM ArcA, arginine up to 480 µM
purified protein [11] = substrate: NCCC[C@H](N)C(=O)O; assay: purified protein; conditions: internal ornithine as counter-substrate, 25 µM external arginine, 50 mM KPi pH 7.0, 30 °C
purified protein [12] = substrate: NC(=O)NCCC[C@H](N)C(=O)O; assay: purified protein; type: biochemical, Lactococcus lactis; conditions: internal citrulline as counter-substrate, 25 µM external arginine, membrane potential −120 mV (valinomycin), pH 7.0, 30 °C
purified protein [13] = substrate: N=C(N)NCCC[C@H](N)C(=O)O; assay: purified protein; type: biochemical, Lactococcus lactis; conditions: external arginine, 10 mM internal ornithine, DOPE:DOPG:DOPC 50:38:12, 50 mM KPi pH 7.0, 30 °C, labelled compound

`NC(=O)NCCC[C@H](N)C(=O)O` [L-citrulline] gave an inhibition at 10000 µM [1] of 40 to 50%.

For `NCCC[C@H](N)C(=O)O` [L-ornithine], the “% inhibition” value [2] was “ornithine was slightly inhibitory”, the inhibition at 10000 µM [3] was 30% and the Km [4] was 700 ± 200 µM.

`N=C(N)NCCC[C@H](N)C(=O)O` [L-arginine] was tested, and the “K I” value [5] was 3.2 ± 0.4 mM and the inhibition at 10000 µM [6] was 25%.

B1: ArcC1 (carbamate kinase, CK) (Lactococcus lactis subsp. lactis Il1403) (protein)
chain: T1 sequence (Q9CE16 1-314)
notes: expressed in L. lactis NZ9000; dimer (73 kDa)
B1 gave a Km [7] of 1600 ± 700 µM, a kcat [7] of 190 ± 15 s⁻¹ and a Km [8] of 600 ± 200 µM. The kcat [8] was 200 ± 20 s⁻¹.

B2: ArcB (ornithine transcarbamoylase, OTC) (Lactococcus lactis subsp. lactis Il1403) (protein)
chain: T3 sequence (P0C2U0 1-354)
notes: expressed in L. lactis NZ9000; hexamer (245 kDa)
Work on B2 yielded a Km [9] of 2700 ± 400 µM and a kcat [9] of 565 ± 45 s⁻¹.

B3: ArcA (arginine deiminase, ADI) (Lactococcus lactis subsp. lactis Il1403) (protein)
chain: T2 sequence (P58013 1-410)
notes: expressed in L. lactis NZ9000; tetramer (194 kDa)
B3 was tested, and the Km [10] was 34.5 ± 6.6 µM and the kcat [10] was 3.3 ± 0.2 s⁻¹.

B4: ArcD2 (arginine/ornithine antiporter, AOA) (Lactococcus lactis subsp. lactis Il1403) (protein)
chain: MENKKTKGISLFALLAIIISGAIGGGVFNLANDLANGSTPGGVMISWLFIGFGIFMLVLSFNRLITIRPKLSGVSDYAREGFGDFIGFLSGWGYWISAWTGTIGFAVLMMTSADYFFPSKFANSNGSLTVLSVIIVSIISWILMFLVDRGVETAALVNAVVMIAKLIPLVVFSITGIILFKADVFTQHFWQTFTSNLAADGSVKSLVWHAMTAGGLLDQIKGSLMVMVWVFVGIEGAAMMGNRAKKKSDTAKATIIGLAVLLVIYVLLSLLPYGYMDQASLANVKAPGLVYILNEMVGGWGGSLMAIGLMISLLGAWLSWTMLPVEATQQLAEKKLLPSWFGKLNKYHAPSNSLLITQLMIQIFIIITYFVANAYNVFIYMATAVIMICYALVGAYLLKIGIKEGSIKNILIGFFTFAFQALALYLSGWQYVWLAMILYTIGFILFIKAKKESRQAISVKEWAGMFIVALLGVLAILVLICGAKSGTALDLRGLLGY
notes: expressed in L. lactis JP9000; reconstituted in proteoliposomes; monomer (53 kDa) in DDM
In the case of B4, the Km (purified protein [11]) is reported as 2500 ± 700 µM, the kcat (purified protein [11]) is reported as 0.09 ± 0.009 s⁻¹ and the Km (purified protein [12]) is reported as 6000 ± 2100 µM. The Km (purified protein [13]) was 6.0 ± 0.7 µM and the kcat (purified protein [13]) was 0.11 ± 0.005 s⁻¹.
